The target in the assay is actin filaments (rabbit muscle actin, polymerized) (rabbit, UniProt P68135 1-377). Kind of assay: co-sedimentation; high-speed cosedimentation; 3 uM actin (AFs) with 0.25-8 uM FH1FH2; bound against free protein fitted with a hyperbolic function; three independent experiments; methods in the supplement. The conditions noted are these: both partners purified.

Experimental findings from paper PMC5529588, “OsFH15, a class I formin, interacts with microfilaments and microtubules to regulate grain size via affecting cell expansion in rice” (Scientific Reports, 2017) are described below.

As usually defined, the Kd is the free concentration of one partner at which half of the binding sites on the other are occupied at equilibrium, for simple one-to-one binding.

B1: OsFH15 FH2 (truncated recombinant protein containing the FH2 domain of OsFH15) (domain or fragment)
chain: not shown
notes: OsFH15, class I formin of Oryza sativa, 788 a.a; source: E. coli Transetta (DE3), pET-30a(+), purified (Ni-NTA)
In the case of B1, binding was put at a Kd of 1.51 ± 0.07 µM.
